Data: patent US20220401557A1 (Chugai, published 2022)
Residue numbers refer to the chain shown, from its start.

Target: CD3 on NFAT-RE-luc2-Jurkat cells (human, UniProt P07766 23-207)
Assay: cell-based or functional assay

CD3 on NFAT-RE-luc2-Jurkat cells, sequence (P07766 23-207): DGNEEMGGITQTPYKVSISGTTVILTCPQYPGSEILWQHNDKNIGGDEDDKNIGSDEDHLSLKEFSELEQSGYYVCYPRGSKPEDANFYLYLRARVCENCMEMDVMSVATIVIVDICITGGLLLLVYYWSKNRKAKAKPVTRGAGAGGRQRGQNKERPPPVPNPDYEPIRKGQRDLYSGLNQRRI

B1: hCE115HA/GLSuPA20//GCH065 (bispecific antibody, human IgG1, kappa, N297A)
heavy 1: QVQLVESGGGVVQPGRSLRLSCAASGFTFSNAWMHWVRQAPGKGLEWVAQIKAKSNNYATYYAESVKGRFTISRDDSKNSLYLQMNSLKTEDTAVYYCRYVHYGAYYGVDAWGQGTTVTVSSASTKGPSVFPLAPSSKSTSGGTAALGCLVKDYFPEPVTVSWNSGALTSGVHTFPAVLQSSGLYSLSSVVTVPSSSLGTQTYICNVNHKPSNTKVDKKVEPKSCDKTHTCPPCPAPELRGGPKVFLFPPKPKDTLMISRTPEVTCVVVDVSHEDPEVKFNWYVDGVEVHNAKTKPREEQYASTYRVVSVLTVLHQDWLNGKEYKCKVSNKALPAPIEKTISKAKGQPREPQVYTLPPSRKEMTKNQVSLTCLVKGFYPSDIAVEWESNGQPENNYKTTPPYLDSDGSFFLYSKLTVDKSRWQQGNVFSCSVMHEALHNHYTQKSLSLSP
light 1: QDGNEEMGGITQTPYKVSISLSGRSDNHGGGSDIVMTQSPLSLPVTPGEPASISCRSSQSLVHSNRNTYLHWYQQKPGQAPRLLIYKVSNRFSGVPDRFSGSGSGTDFTLKISRVEAEDVGVYYCGQGTQVPYTFGQGTKLEIKRTVAAPSVFIFPPSDEQLKSGTASVVCLLNNFYPREAKVQWKVDNALQSGNSQESVTEQDSKDSTYSLSSTLTLSKADYEKHKVYACEVTHQGLSSPVTKSFNRGEC
heavy 2: QVQLVQSGAEVKKPGASVTVSCKASGYTFTDYEMHWIRQPPGEGLEWIGAIDGPTPDTAYSEKFKGRVTLTADKSTSTAYMELSSLTSEDTAVYYCTRFYSYTYWGQGTLVTVSSASTKGPSVFPLAPSSKSTSGGTAALGCLVKDYFPEPVTVSWNSGALTSGVHTFPAVLQSSGLYSLSSVVTVPSSSLGTQTYICNVNHKPSNTKVDKKVEPKSCDKTHTCPPCPAPELRGGPKVFLFPPKPKDTLMISRTPEVTCVVVDVSHEDPEVKFNWYVDGVEVHNAKTKPREEQYASTYRVVSVLTVLHQDWLNGKEYKCKVSNKALPAPIEKTISKAKGQPREPQVYTLPPSREEMTKNQVSLTCLVKGFYPSDIAVEWESNGQPENNYKTTPPYLDSDGSFFLYSKLTVDKSRWQQGNVFSCSVMHEALHNHYTQESLSLSP
light 2: DIVMTQSPLSLPVTPGEPASISCRSSQPLVHSNRNTYLHWYQQKPGQAPRLLIYKVSNRFSGVPDRFSGSGSGTDFTLKISRVEAEDVGVYYCGQGTQVPYTFGQGTKLEIKRTVAAPSVFIFPPSDEQLKSGTASVVCLLNNFYPREAKVQWKVDNALQSGNSQESVTEQDSKDSTYSLSSTLTLSKADYEKHKVYACEVTHQGLSSPVTKSFNRGEC
  increase rate due to the protease treatment (luciferase, uPA-treated / untreated), antibody 0.1 nM: 1.6 ratio
  increase rate due to the protease treatment (luciferase, uPA-treated / untreated), antibody 1 nM: 3 ratio

B2: rCE115/GLSuPA20//GCH065 (bispecific antibody, human IgG1, kappa, N297A)
heavy 1: EVQLVETGGSLVQPGKSLKLTCATSGFTFSNAWMHWVRQSPEKQLEWVAQIKAKSNNYATYYAESVKGRFTISRDDSKSNIYLQMNSLKEEDTAVYYCRYVHYGAYYGVDAWGQGTSVTVSSASTKGPSVFPLAPSSKSTSGGTAALGCLVKDYFPEPVTVSWNSGALTSGVHTFPAVLQSSGLYSLSSVVTVPSSSLGTQTYICNVNHKPSNTKVDKKVEPKSCDKTHTCPPCPAPELRGGPKVFLFPPKPKDTLMISRTPEVTCVVVDVSHEDPEVKFNWYVDGVEVHNAKTKPREEQYASTYRVVSVLTVLHQDWLNGKEYKCKVSNKALPAPIEKTISKAKGQPREPQVYTLPPSRKEMTKNQVSLTCLVKGFYPSDIAVEWESNGQPENNYKTTPPYLDSDGSFFLYSKLTVDKSRWQQGNVFSCSVMHEALHNHYTQKSLSLSP
light 1: B1 light 1
heavy 2: B1 heavy 2
light 2: B1 light 2
  increase rate due to the protease treatment (luciferase, uPA-treated / untreated), antibody 0.1 nM: 2.8 ratio
  increase rate due to the protease treatment (luciferase, uPA-treated / untreated), antibody 1 nM: 1.6 ratio

B3: rCE115/GLSuPA27//GCH065 (bispecific antibody, human IgG1, kappa, N297A)
heavy 1: B2 heavy 1
light 1: QDGNEEMGGITQTPYKVSISGTTVILTLSGRSDNHDIVMTQSPLSLPVTPGEPASISCRSSQSLVHSNRNTYLHWYQQKPGQAPRLLIYKVSNRFSGVPDRFSGSGSGTDFTLKISRVEAEDVGVYYCGQGTQVPYTFGQGTKLEIKRTVAAPSVFIFPPSDEQLKSGTASVVCLLNNFYPREAKVQWKVDNALQSGNSQESVTEQDSKDSTYSLSSTLTLSKADYEKHKVYACEVTHQGLSSPVTKSFNRGEC
heavy 2: B1 heavy 2
light 2: B1 light 2
  increase rate due to the protease treatment (luciferase, uPA-treated / untreated), antibody 0.1 nM: 1 ratio
  increase rate due to the protease treatment (luciferase, uPA-treated / untreated), antibody 1 nM: 1.5 ratio

B4: rCE115/GLSGS//GCH065 (bispecific antibody, human IgG1, kappa, N297A)
heavy 1: B2 heavy 1
light 1: QDGNEGGGSGGGSGGGSDIVMTQSPLSLPVTPGEPASISCRSSQSLVHSNRNTYLHWYQQKPGQAPRLLIYKVSNRFSGVPDRFSGSGSGTDFTLKISRVEAEDVGVYYCGQGTQVPYTFGQGTKLEIKRTVAAPSVFIFPPSDEQLKSGTASVVCLLNNFYPREAKVQWKVDNALQSGNSQESVTEQDSKDSTYSLSSTLTLSKADYEKHKVYACEVTHQGLSSPVTKSFNRGEC
heavy 2: B1 heavy 2
light 2: B1 light 2
  increase rate due to the protease treatment (luciferase, uPA-treated / untreated), antibody 0.1 nM: 1 ratio
  increase rate due to the protease treatment (luciferase, uPA-treated / untreated), antibody 1 nM: 0.7 ratio

B5: rCE115/rCE115//GCH065 (bispecific antibody, human IgG1, kappa, N297A)
heavy 1: B2 heavy 1
light 1: DVVMTQTPVSMSVSLGGQVSISCRSSQSLVHNNGNTYVSWYIQKPSQSPQLLIYKVSNRFSGISDRFSGSGSGTDFTLKISRVEPDDLGVYYCGQGTQDPYTFGAGTKLELKRTVAAPSVFIFPPSDEQLKSGTASVVCLLNNFYPREAKVQWKVDNALQSGNSQESVTEQDSKDSTYSLSSTLTLSKADYEKHKVYACEVTHQGLSSPVTKSFNRGEC
heavy 2: B1 heavy 2
light 2: B1 light 2
  increase rate due to the protease treatment (luciferase, uPA-treated / untreated), antibody 0.1 nM: 0.7 ratio
  increase rate due to the protease treatment (luciferase, uPA-treated / untreated), antibody 1 nM: 0.9 ratio

B6: hCE115HA/GLSuPA27//GCH065 (bispecific antibody, human IgG1, kappa, N297A)
heavy 1: B1 heavy 1
light 1: B3 light 1
heavy 2: B1 heavy 2
light 2: B1 light 2
  increase rate due to the protease treatment (luciferase, uPA-treated / untreated), antibody 0.1 nM: 1 ratio
  increase rate due to the protease treatment (luciferase, uPA-treated / untreated), antibody 1 nM: 2.3 ratio

B7: rCE115/rCE115GS//GCH065 (bispecific antibody, human IgG1, kappa, N297A)
heavy 1: B2 heavy 1
light 1: QDGNEGGGSGGGSGGGSDVVMTQTPVSMSVSLGGQVSISCRSSQSLVHNNGNTYVSWYIQKPSQSPQLLIYKVSNRFSGISDRFSGSGSGTDFTLKISRVEPDDLGVYYCGQGTQDPYTFGAGTKLELKRTVAAPSVFIFPPSDEQLKSGTASVVCLLNNFYPREAKVQWKVDNALQSGNSQESVTEQDSKDSTYSLSSTLTLSKADYEKHKVYACEVTHQGLSSPVTKSFNRGEC
heavy 2: B1 heavy 2
light 2: B1 light 2
  increase rate due to the protease treatment (luciferase, uPA-treated / untreated), antibody 0.1 nM: 0.9 ratio
  increase rate due to the protease treatment (luciferase, uPA-treated / untreated), antibody 1 nM: 0.6 ratio

B8: rCE115/rCE115uPA04//GCH065 (bispecific antibody, human IgG1, kappa, N297A)
heavy 1: B2 heavy 1
light 1: QDGNEEMGGGSGGGSGGGSLSGRSDNHGGGSDVVMTQTPVSMSVSLGGQVSISCRSSQSLVHNNGNTYVSWYIQKPSQSPQLLIYKVSNRFSGISDRFSGSGSGTDFTLKISRVEPDDLGVYYCGQGTQDPYTFGAGTKLELKRTVAAPSVFIFPPSDEQLKSGTASVVCLLNNFYPREAKVQWKVDNALQSGNSQESVTEQDSKDSTYSLSSTLTLSKADYEKHKVYACEVTHQGLSSPVTKSFNRGEC
heavy 2: B1 heavy 2
light 2: B1 light 2
  increase rate due to the protease treatment (luciferase, uPA-treated / untreated), antibody 0.1 nM: 2.7 ratio
  increase rate due to the protease treatment (luciferase, uPA-treated / untreated), antibody 1 nM: 3.8 ratio

B9: rCE115/GLSuPA04//GCH065 (bispecific antibody, human IgG1, kappa, N297A)
heavy 1: B2 heavy 1
light 1: QDGNEEMGGGSGGGSGGGSLSGRSDNHGGGSDIVMTQSPLSLPVTPGEPASISCRSSQSLVHSNRNTYLHWYQQKPGQAPRLLIYKVSNRFSGVPDRFSGSGSGTDFTLKISRVEAEDVGVYYCGQGTQVPYTFGQGTKLEIKRTVAAPSVFIFPPSDEQLKSGTASVVCLLNNFYPREAKVQWKVDNALQSGNSQESVTEQDSKDSTYSLSSTLTLSKADYEKHKVYACEVTHQGLSSPVTKSFNRGEC
heavy 2: B1 heavy 2
light 2: B1 light 2
  increase rate due to the protease treatment (luciferase, uPA-treated / untreated), antibody 0.1 nM: 6.4 ratio
  increase rate due to the protease treatment (luciferase, uPA-treated / untreated), antibody 1 nM: 3.1 ratio

B10: hCE115HAGS/GLS//GCH065 (bispecific antibody, human IgG1, kappa, N297A)
heavy 1: QDGNEGGGSGGGSQVQLVESGGGVVQPGRSLRLSCAASGFTFSNAWMHWVRQAPGKGLEWVAQIKAKSNNYATYYAESVKGRFTISRDDSKNSLYLQMNSLKTEDTAVYYCRYVHYGAYYGVDAWGQGTTVTVSSASTKGPSVFPLAPSSKSTSGGTAALGCLVKDYFPEPVTVSWNSGALTSGVHTFPAVLQSSGLYSLSSVVTVPSSSLGTQTYICNVNHKPSNTKVDKKVEPKSCDKTHTCPPCPAPELRGGPKVFLFPPKPKDTLMISRTPEVTCVVVDVSHEDPEVKFNWYVDGVEVHNAKTKPREEQYASTYRVVSVLTVLHQDWLNGKEYKCKVSNKALPAPIEKTISKAKGQPREPQVYTLPPSRKEMTKNQVSLTCLVKGFYPSDIAVEWESNGQPENNYKTTPPYLDSDGSFFLYSKLTVDKSRWQQGNVFSCSVMHEALHNHYTQKSLSLSP
light 1: B1 light 2 with P28S
heavy 2: B1 heavy 2
light 2: B1 light 2
  increase rate due to the protease treatment (luciferase, uPA-treated / untreated), antibody 0.1 nM: 1 ratio
  increase rate due to the protease treatment (luciferase, uPA-treated / untreated), antibody 1 nM: 1 ratio

B11: rCE115/GLS//GCH065 (bispecific antibody, human IgG1, kappa, N297A)
heavy 1: B2 heavy 1
light 1: B1 light 2 with P28S
heavy 2: B1 heavy 2
light 2: B1 light 2
  increase rate due to the protease treatment (luciferase, uPA-treated / untreated), antibody 0.1 nM: 0.7 ratio
  increase rate due to the protease treatment (luciferase, uPA-treated / untreated), antibody 1 nM: 0.9 ratio
